The results in this text go back to patent US20220281960A1 (RAMOT AT TEL AVIV UNIVERSITY, published 2022).

The experiment addresses T1, maltose binding protein (UniProt P0AEX9 27-396 = MBP).
T1 construct: also called MBP; carrier protein
Briefly: ELISA on coated MBP.

B1: P4-36 (antibody, V domains shown)
VH: EVQLVESGGGLVQPGRSLRLSCTDSGFTFSEYALSWVRQAPGKGLEWVGFIRSKAYGGTTEYAASVKGRFTISRDDSKSVAYLQMNSLKTEDTAVYFCTGPRPYYDSSGYYPYYFDYWGQGTLVTVSS
VL: QSALTQPRSVSGSPGQSVTISCTGSRSDVGGYDYVSWYQQHPGRVPKLMIYDVTKRPSGVPDRFSGSRSGNTASLTISGLQADDEADYYCSSFAGSSTYVVFGGGTTLTVL
notes: also called mAb P4-36; clone 3 antibody P4-36
As for B1, the binding result is on record as “no binding”.
